Measurements from publication PMC10397247.

T1: 4H850-bA
T1 chain: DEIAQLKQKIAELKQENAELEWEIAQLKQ

T2: 4H1710-bA
T2 chain: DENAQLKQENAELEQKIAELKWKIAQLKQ

T3: 4H2667-bN
T3 chain: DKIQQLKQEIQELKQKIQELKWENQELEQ

T4: 4H619-bA
T4 chain: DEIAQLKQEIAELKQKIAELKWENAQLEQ

T5: 4H3817-bA
T5 chain: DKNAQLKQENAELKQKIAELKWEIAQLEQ

T6: 4H1985-bA
T6 chain: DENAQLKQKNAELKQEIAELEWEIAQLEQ

T7: 4H3631-bA
T7 chain: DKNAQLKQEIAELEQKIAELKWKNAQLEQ

T8: 4H3974-bA
T8 chain: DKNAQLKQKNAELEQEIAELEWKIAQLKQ

T9: 4H3414-bA
T9 chain: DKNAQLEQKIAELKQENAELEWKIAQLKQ

T10: 4H3129-bA
T10 chain: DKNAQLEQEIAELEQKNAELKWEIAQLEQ

T11: 4H570-bA
T11 chain: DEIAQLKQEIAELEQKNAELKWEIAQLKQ

T12: 4H584-bA
T12 chain: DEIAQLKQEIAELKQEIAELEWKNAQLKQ

T13: 4H1804-bA
T13 chain: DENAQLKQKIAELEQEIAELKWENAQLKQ

T14: 4H906-bA
T14 chain: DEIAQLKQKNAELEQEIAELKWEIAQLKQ

T15: 4H3172-bA
T15 chain: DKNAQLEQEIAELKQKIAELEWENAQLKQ

T16: 4H1629-bA
T16 chain: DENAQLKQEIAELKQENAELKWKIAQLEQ

T17: 4H3638-bA
T17 chain: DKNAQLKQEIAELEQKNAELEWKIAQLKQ

T18: 4H1544-bA
T18 chain: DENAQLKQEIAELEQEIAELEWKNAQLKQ

T19: 4H1899-bA
T19 chain: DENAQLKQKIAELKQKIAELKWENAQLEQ

T20: 4H3628-bA
T20 chain: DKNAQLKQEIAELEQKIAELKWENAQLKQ

T21: 4H1449-bA
T21 chain: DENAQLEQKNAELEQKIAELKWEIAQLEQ

T22: 4H3858-bA
T22 chain: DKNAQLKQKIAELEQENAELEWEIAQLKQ

T23: 4H3613-bA
T23 chain: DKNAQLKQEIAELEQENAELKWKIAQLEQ

T24: 4H3855-bN
T24 chain: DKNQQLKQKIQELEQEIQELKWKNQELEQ

T25: 4H477-bA
T25 chain: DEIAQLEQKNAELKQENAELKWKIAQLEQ

T26: 4H348-bA
T26 chain: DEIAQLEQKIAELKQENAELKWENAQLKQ

T27: O11-bA
T27 chain: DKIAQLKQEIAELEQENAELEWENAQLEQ

T28: 4H492-bA
T28 chain: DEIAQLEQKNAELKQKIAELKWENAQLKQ

T29: 4H3057-bA
T29 chain: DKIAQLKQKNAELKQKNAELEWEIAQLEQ

T30: 4H319-bA
T30 chain: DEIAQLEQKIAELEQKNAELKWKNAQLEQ

T31: 4H3277-bA
T31 chain: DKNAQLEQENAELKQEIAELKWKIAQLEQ

T32: 4H2915-bA
T32 chain: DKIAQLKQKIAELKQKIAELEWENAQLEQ

T33: 4H741-bA
T33 chain: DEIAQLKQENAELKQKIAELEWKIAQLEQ

T34: 4H40-bA
T34 chain: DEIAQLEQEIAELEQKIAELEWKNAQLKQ


What was measured:
Assay in all cases: two-hybrid library CCNG1;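 note: natural log of median RNA to DNA barcode read ratio; higher means stronger binding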
4H850-bA = target: T1, 4H850-bA
4H1710-bA = target: T2, 4H1710-bA
4H2667-bN = target: T3, 4H2667-bN
4H619-bA = target: T4, 4H619-bA
4H3817-bA = target: T5, 4H3817-bA
4H1985-bA = target: T6, 4H1985-bA
4H3631-bA = target: T7, 4H3631-bA
4H3974-bA = target: T8, 4H3974-bA
4H3414-bA = target: T9, 4H3414-bA
4H3129-bA = target: T10, 4H3129-bA
4H570-bA = target: T11, 4H570-bA
4H584-bA = target: T12, 4H584-bA
4H1804-bA = target: T13, 4H1804-bA
4H906-bA = target: T14, 4H906-bA
4H3172-bA = target: T15, 4H3172-bA
4H1629-bA = target: T16, 4H1629-bA
4H3638-bA = target: T17, 4H3638-bA
4H1544-bA = target: T18, 4H1544-bA
4H1899-bA = target: T19, 4H1899-bA
4H3628-bA = target: T20, 4H3628-bA
4H1449-bA = target: T21, 4H1449-bA
4H3858-bA = target: T22, 4H3858-bA
4H3613-bA = target: T23, 4H3613-bA
4H3855-bN = target: T24, 4H3855-bN
4H477-bA = target: T25, 4H477-bA
4H348-bA = target: T26, 4H348-bA
O11-bA = target: T27, O11-bA
4H492-bA = target: T28, 4H492-bA
4H3057-bA = target: T29, 4H3057-bA
4H319-bA = target: T30, 4H319-bA
4H3277-bA = target: T31, 4H3277-bA
4H2915-bA = target: T32, 4H2915-bA
4H741-bA = target: T33, 4H741-bA
4H40-bA = target: T34, 4H40-bA

| interaction score (4H850-bA) | interaction score (4H1710-bA) | interaction score (4H619-bA) | interaction score (4H3817-bA) | interaction score (4H1985-bA) | interaction score (4H3631-bA) | interaction score (4H3974-bA) | interaction score (4H3414-bA) | interaction score (4H3129-bA) | interaction score (4H570-bA) | interaction score (4H584-bA) | interaction score (4H1804-bA) | interaction score (4H906-bA) | interaction score (4H3172-bA) | interaction score (4H1629-bA) | interaction score (4H3638-bA) | Binder | other results |
| --- | --- | --- | --- | --- | --- | --- | --- | --- | --- | --- | --- | --- | --- | --- | --- | --- | --- |
| -1.14 | -0.992 | -0.0748 | -0.529 | -0.329 | -0.216 | -0.124 | 0.702 | 0.102 | -0.594 | -1.4 | -1.39 | -0.968 | -0.887 | 0.605 | -0.477 | DENAQLKQEIAELKQENAELKWKIAQLEQ [4H1629-bA] | interaction score (4H2667-bN): -1.22 |
| -0.723 | 0.786 | -1.52 | -0.857 | 0.787 | 0.473 | 2.19 | -1.03 | -0.874 | -1.93 | -1.3 | -0.732 | -0.904 | -1.06 | -1.11 | -1.83 | DENAQLEQKNAELEQKIAELKWEIAQLEQ [4H1449-bA] | interaction score (4H1544-bA): -0.535; interaction score (4H1899-bA): -0.25; interaction score (4H3628-bA): -0.201; interaction score (4H1449-bA): -0.613; interaction score (4H3858-bA): -0.848; interaction score (4H3613-bA): -0.891 |
| – | – | – | – | – | – | – | – | – | – | – | – | – | – | – | – | DKIAQLKQKIAELKQKIAELEWENAQLEQ [4H2915-bA] | interaction score (4H3855-bN): 0.188; interaction score (4H477-bA): -1.05; interaction score (4H348-bA): -1.42; interaction score (O11-bA): 0.236; interaction score (4H492-bA): -1.03; interaction score (4H3057-bA): -0.856; interaction score (4H319-bA): 1.12; interaction score (4H3277-bA): -1.17; interaction score (4H2915-bA): 0.656; interaction score (4H741-bA): -0.66; interaction score (4H40-bA): 1.35 |
